Experimental data published in the nanobody polyreactivity screen of Harvey et al. (2022).

Test: yeast display, Sf9 membrane polyspecificity reagent, FACS + sequencing; frameworks hold sequencing errors
In short: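 In a synthetic yeast display library (Saccharomyces cerevisiae BJ5465), nanobody expression was induced with galactose for 36–48 hours. FACS gates were set low and high (top ~1%) using anti-HA fluorescence for expression and streptavidin fluorescence for binding of the Sf9 membrane reagent. Each polyreactivity label is drawn from the gate of origin.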

| Sequence | polyreactivity (PSR sort gate) |
| --- | --- |
| QVQLVESGGGLVQAGGSLRLSCAASGLTFYYYAMGWYRQATGKERELVATITRSGGGTYFADSVKGRFTISRDNAKNTVYLQMNSLKPEDTAVYYCAADLSWYVLFSGLYDYWGQGTQVTVSS | high polyreactivity |
| QVQLVESGGGLVQAGGSLRLSCAASGLTFYYYDMGWYRQAPGKERELVAAITTDGSTNYADSVKGRFTISRDNAKNTVYLQMNSLKPEDTAVYYCAADKYYRYNYWGQGTQVTVSS | high polyreactivity |
| QVQLVESGGGLVQAGGSLRLSCAASGLTFYYYVMAWYRQAPGKERELVAAISRSGGSTRYADSVKGRFTISRDNANNTVYLQMNSLKPEDTAVYYCNAVRYPRLMYYWGQGTQVTVSS | high polyreactivity |
| QVQLVESGGGLVQAGGSLRLSCAASGLTILPNAMGWYRPAPGKERELVAAISWGDGNTYYADSVKGRFTISRDNAKNTVYLQMNSLKPEDTAVYYCAADVIKSRTYDYWGQGTQVTVSS | low polyreactivity |
| QVQLVESGGGLVQAGGSLRLSCAASGLTIRYYAMGWYRKAPGKERELVAAISSSGGRTYYADSVKGRFTISRDNAKNTVYLQMNSLKPEDTAVYYCSRDYGYGLMGYWGQGTQVTVSS | high polyreactivity |
| QVQLVESGGGLVQAGGSLRLSCAASGLTISAYAMGWYRQAPGKERELVAAITSSGGSTYADSVKGRFTISRDNAKNTVYLQMNSLKPEVTAVYYCAARVVRYGYKYYYWGQGTQVTVSS | low polyreactivity |
| QVQLVESGGGLVQAGGSLRLSCAASGLTISRYAMGWYRQAPGKEREFVASISISSVDTYYADSVKGRFTISRDNAKNTVYLQMNSLKPEDTAVYYCAAAGRVGVTRYYSWGQGTQVTVSS | high polyreactivity |
| QVQLVESGGGLVQAGGSLRLSCAASGLTISWYAMGWYRQAPGKEWELVAAISTRGGRTYYADSVKGRFTISRDNAKNTVYLQMNSRKQEDNAVYYCAAGVYYRYLWLFDYWGQGTQVTVSS | high polyreactivity |
| QVQLVESGGGLVQAGGSLRLSCAASGLTIVQYAMGWYRQAPGKERELVARISRNGGSSYYADSVKGRFPISRDNAKNTVYLQMNSLKPEDTAVYYCNALRGPVKFYYWGQGTQVTVSS | low polyreactivity |
| QVQLVESGGGLVQAGGSLRLSCAASGLTIWYYSMGLYRQAPGKEREFVAAITSRGGDTNYADSVKGRFTISRDNAKNTVYLQMNSLKPEDTAVYYCAVRPRYYGTYRYYYWGQGTQVTVSS | high polyreactivity |
| QVQLVESGGGLVQAGGSLRLSCAASGLTLAGYAMGWYRQAPGKERELVAAITASGVRTYYADSVKGRFTISRDNAKNTVYLQMNSLKPEDTAVYYCAAGVQTQRGGYAIYRPGLRYYWGQGTQVTVSS | high polyreactivity |
| QVQLVESGGGLVQAGGSLRLSCAASGLTLDKYAMGWYRPAPRKERELVAGINSRGGSTYADSVKGRFTISRDNAKNTVYLQMNSMKPEDTAVYYCAADGKVQGGYYWGQGTQVTVSS | high polyreactivity |
| QVQLVESGGGLVQAGGSLRLSCAASGLTLETNAMGWYRQAPGKERELVAGITYSGGTTYYADSVKGRFTISRDNAKNTVYLQMNSLKPEDTAVYYCAAHTRTSGHNYWGQGTQVTVSS | low polyreactivity |
| QVQLVESGGGLVQAGGSLRLSCAASGLTLGRNAMGWYRQAPGKERELVAAITQSGGSTYYADSVKGRFTISRDNAKNTVYLQMNSLKAEDTAVYYCAAEVVRQWHGIGYDYWGQGTQVTVSS | low polyreactivity |
| QVQLVESGGGLVQAGGSLRLSCAASGLTLGSYAMGWYRQAPGKERELVAAISRRSGRTYYADSVKGRFTISRDNAKNTVYLQMNSLKPEDTAVYYCNRGYTAQVYTEFDYWGQGTQVTVSS | low polyreactivity |
| QVQLVESGGGLVQAGGSLRLSCAASGLTLLKNAMGWYRQAPGKEREYADSVKGRFTISRDNAKNTVYLQMNSLKPEDTAVYYCAKDVNGGYFYYQYPAQYYYWGQGTQVTVSS | low polyreactivity |

| Sequence | polyreactivity (PSR sort gate) |
| --- | --- |
| QVQLVESGGGLVQAGGSLRLSCAASGLTLRNYAMGWYRQAPGKERELVARITTGGSTHYADSVKGRFTISRDNAKNTVSLQMHSLKPEDTAVYYCNTGPYTFVSPEYYYWGQGTQVTVSS | low polyreactivity |
| QVQLVESGGGLVQAGGSLRLSCAASGLTLRWYDMGWYRQAPGKERELVAAITTNGGSTYYADSVKGRFTISRDNAKNTVYLQMNSLKPEDTAVYYCAALYWRSTVGAYSTYEYDYWGQGTQVTVSS | high polyreactivity |
| QVQLVESGGGLVQAGGSLRLSCAASGLTLSGYAMGWYRQAPGKERELVAAISSTGGSTYYADSVKGRFTISRDNAKNTVYLQMNSLKPEDTAVYYCAKGYSPTRVRLRYPRYDTYNHWGQGTQVTVSS | high polyreactivity |
| QVQLVESGGGLVQAGGSLRLSCAASGLTLSYNAMGWYRQAPGKERELVAAIRSGGSTNYADSVKGRFTISRDNAKNTVYLQMNSLKPVDTAVYYCAARFRYLPYRYGRYQSGYEYWGQGTQVTVSS | high polyreactivity |
| QVQLVESGGGLVQAGGSLRLSCAASGLTLSYYAMGWYRQAPGKERELVAAISSGGSTYYADSVKGRFTISRDNAKNTVYLQMNSLKPEDTAVYYCAAQWWRLYWEYYYWGQGTQVTVSS | low polyreactivity |
| QVQLVESGGGLVQAGGSLRLSCAASGLTLTPYVMGWYRQAPGKEREFVAAITYTGGRTYYADSVKGRFTISRDNAKNTVYLKMNSLKPEDTAVYDCNKGYYQTWPRYYSWGQGTQVTVSS | high polyreactivity |
| QVQLVESGGGLVQAGGSLRLSCAASGLTLYRYAMGWYRQAPGKEREFVASISWSGGSTYYADSVKGRFTISRDNANNTVYLQMNSLKPEDTAVYYCATDSDTSQLGYDYWGQGTQVTVSS | low polyreactivity |
| QVQLVESGGGLVQAGGSLRLSCAASGLTSDENAMGWYRQAPGKERELVAVISNSGDSTYYADSVKGRFTISRDTAKNTVYLQLNSLKPEDTAVYNCAADGLSKFDYWGQGTQVTVSS | low polyreactivity |
| QVQLVESGGGLVQAGGSLRLSCAASGLTSLGNAMGWYRQAPGKERELVAAITRTGTSTYYADSVKGRFTISRDNAKNTVYLQMNSLKPEDTAVYYCAALDRYSTEYKYQLYKQEYDYWVQGTQVTVSS | low polyreactivity |
| QVQLVESGGGLVQAGGSLRLSCAASGLTSSGNAMGWYRQAPGKERELVAAISWKAGSTYYADSVKGRFTISRDNAKNTVYLQMNSLKPEDTGVYYCAATLWSKTGYDYWGQGTIVTVSS | low polyreactivity |
| QVQLVESGGGLVQAGGSLRLSCAASGLTSTNNAMGWYRQAHGKERELVAAITSGSTTNYADSVKGRFTISRDNAKNTVYLQMNSLKPEDTAVYYCAAQYGVCWRRYYYPEYDYWGQGTQVTVSS | low polyreactivity |
| QVQLVESGGGLVQAGGSLRLSCAASGLTSYDYGMGWYRQAPGKERELVAAITWSGGSTYYADSVKGRFTISRDNAKNTVYLEMHSLKPEDTAVYYCAAESWGYGWYGYWGQGNQVTVSS | low polyreactivity |
| QVQLVESGGGLVQAGGSLRLSCAASGLTYKYYAMGWYRQAPGKERELVARISRGGNTNYADSVKGRFTISRDNAKNTVYLQMNSVKPEDTAVFYCAATVRVYDYWGQGTQVSVSS | high polyreactivity |
| QVQLVESGGGLVQAGGSLRLSCAASGMIFGYYAMGWYRQAPAKERELVAAITGSGGRTYYADSVKGRFTISRDNAKNTVYLQMNSLKTEDTAVYYCADRGVNGMGYWGQGTHVTVSS | high polyreactivity |
| QVQLVESGGGLVQAGGSLRLSCAASGNAIGWYRQAPGKERELVASINRSGGRTYYADSVKGRFTISRDNAKNTVYLQMNSLKPEDTAVYYCAARTHYDSDYWGQGTQVTVSS | low polyreactivity |
| QVQLVESGGGLVQAGGSLRLSCAASGNIFANAMGWYRQAPGKERELVAAISRSGGSTYYADSVKGRFTISRDNAKNTVYLQMNSLKPEDTAVYYCAARTTRGPTFGYWGQGTQVTVSS | high polyreactivity |
